Earlier results in PMC12384831.
Values joined by “and” are separate entries in the source; they are usually repeats but may differ in a detail not shown here. Identical values can stand only once.

Target: VISTA (Homo sapiens) (UniProt Q9H7M9)
UniProt Q9H7M9, sequence (Q9H7M9 33-194): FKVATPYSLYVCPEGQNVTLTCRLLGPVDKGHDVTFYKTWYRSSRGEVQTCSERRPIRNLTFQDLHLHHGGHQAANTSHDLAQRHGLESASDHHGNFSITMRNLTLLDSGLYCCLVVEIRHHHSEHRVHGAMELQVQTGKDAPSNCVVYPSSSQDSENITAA

With IGSF11 (from UniProt Q5DX21) as the substance, how does the Kd read?
The Kd was 20 nM and 80 nM.
